{"source": "the supplement of paper PMC10724198", "note": "± gives the standard deviation of the averaged measurements.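 Note: PSI is a weighted mean of sequencing reads over stability bins, variants kept only with over 10 reads, mCherry proximal and sfGFP distal, peptide attached via GGGS linker.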", "data": [{"system": "Saccharomyces cerevisiae", "assay": "protein stability index of tFT-peptide fusion (C-terminal peptide) (PSI (0-1 scale)); higher = more stable (slower turnover)", "details": "genetic background: wild type; temperature: 30 C", "procedure": "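Multiplexed protein stability (MPS) profiling in S. cerevisiae. Random 12-aa peptides (tFT-X12 library) are fused to the C-terminus of a sfGFP-mCherry tandem fluorescent timer, after mCherry and a GGGS linker. Cells are FACS-sorted into 8 mCherry/sfGFP bins and deep-sequenced. The protein stability index (PSI) is the read-weighted bin average, scaled from 0 (unstable) to 1 (stable). Only peptides with >10 reads are reported; cells were grown at 30 °C in SC-His with glucose.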", "values": [{"sequence": "DKVLQSLALKCK", "protein stability index": "0.508 ± 0.0074"}, {"sequence": "DLASPIFSRFSS", "protein stability index": "0.687 ± 0.036"}, {"sequence": "DLCITNTMLFYL", "protein stability index": "0.7025 ± 0.006"}, {"sequence": "DLGPLFVSWSTW", "protein stability index": "0.778 ± 0.021"}, {"sequence": "DLIRIRHACGFL", "protein stability index": "0.663 ± 0.048"}, {"sequence": "DLPYLYPRCLIS", "protein stability index": "0.72683 ± 0.00028"}, {"sequence": "DLSDGHFSTASP", "protein stability index": "0.678 ± 0.0069"}, {"sequence": "DLTQHRQHKPQK", "protein stability index": "0.735 ± 0.043"}, {"sequence": "DPFFPPYTPSPS", "protein stability index": "0.782 ± 0.049"}, {"sequence": "DPFYRNFARREA", "protein stability index": "0.738 ± 0.026"}, {"sequence": "DPGTNGGCAPPV", "protein stability index": "0.676 ± 0.0014"}, {"sequence": "DPKNEINAKENI", "protein stability index": "0.689 ± 0.069"}, {"sequence": "DPPLPAHPDVPP", "protein stability index": "0.771 ± 0.086"}, {"sequence": "DPQRQDVFRVSE", "protein stability index": "0.6823 ± 0.0021"}, {"sequence": "DPRPHPPFARSP", "protein stability index": "0.699 ± 0.026"}, {"sequence": "DPRSPLSHSFLR", "protein stability index": "0.706 ± 0.044"}, {"sequence": "DPWGGTGKGHWG", "protein stability index": "0.679 ± 0.0056"}, {"sequence": "DQATEPTPKPPD", "protein stability index": "0.643 ± 0.0079"}, {"sequence": "DQSSTIYKIIKE", "protein stability index": "0.672 ± 0.045"}, {"sequence": "DRCSRFRCFFVG", "protein stability index": "0.6 ± 0.031"}, {"sequence": "DRLGGDWMERGG", "protein stability index": "0.688 ± 0.032"}, {"sequence": "DRPWAGGGLGVC", "protein stability index": "0.621 ± 0.081"}, {"sequence": "DRRLGKHEYQPY", "protein stability index": "0.737 ± 0.022"}, {"sequence": "DRRLPVSPPTIV", "protein stability index": "0.774 ± 0.12"}, {"sequence": "DRRQLSVVARRT", "protein stability index": "0.648 ± 0.027"}, {"sequence": "DRRRGMVRKTHV", "protein stability index": "0.659 ± 0.019"}, {"sequence": "DRRVSYKKKKRK", "protein stability index": "0.672 ± 0.14"}, {"sequence": "DRSRWMVVRGGG", "protein stability index": "0.648 ± 0.13"}, {"sequence": "DSCGVFLGDFFQ", "protein stability index": "0.727 ± 0.026"}, {"sequence": "DSDGILTEPTSW", "protein stability index": "0.707 ± 0.0094"}, {"sequence": "DSDSVMPFERLM", "protein stability index": "0.659 ± 0.0095"}, {"sequence": "DSFDLPCLFKVP", "protein stability index": "0.659 ± 0.078"}, {"sequence": "DSHDMSQDLFVN", "protein stability index": "0.767 ± 0.039"}, {"sequence": "DSIALNKDVFWW", "protein stability index": "0.773 ± 0.02"}, {"sequence": "DSLTKYSAKEYR", "protein stability index": "0.5777 ± 0.0052"}, {"sequence": "DSNTAGLTRDIA", "protein stability index": "0.645 ± 0.015"}, {"sequence": "DSQSRRFDRSRN", "protein stability index": "0.671 ± 0.076"}, {"sequence": "DSVRGNDSGSGL", "protein stability index": "0.7245 ± 0.0064"}, {"sequence": "DTHESELNQLNG", "protein stability index": "0.6902 ± 0.0032"}, {"sequence": "DTPERKGNLEEH", "protein stability index": "0.709 ± 0.053"}, {"sequence": "DVGWRATGVLGG", "protein stability index": "0.7106 ± 0.0052"}, {"sequence": "DVGWRVFVFGGL", "protein stability index": "0.704 ± 0.038"}, {"sequence": "DVLSPRPSPLPS", "protein stability index": "0.665 ± 0.0093"}, {"sequence": "DVRSGRAVVGGW", "protein stability index": "0.63 ± 0.051"}, {"sequence": "DWYLVGGRVFWV", "protein stability index": "0.721 ± 0.015"}, {"sequence": "DYLDYPSYNDLT", "protein stability index": "0.599 ± 0.038"}, {"sequence": "DYRKGDVETPFV", "protein stability index": "0.677 ± 0.032"}, {"sequence": "DYVVHSGTYGPK", "protein stability index": "0.687 ± 0.021"}, {"sequence": "EAIGGVPASSRP", "protein stability index": "0.661 ± 0.0091"}, {"sequence": "EALTTAATRYGP", "protein stability index": "0.651 ± 0.0068"}, {"sequence": "EARMGVGRCGTG", "protein stability index": "0.661 ± 0.022"}, {"sequence": "EARRHTKHPGKI", "protein stability index": "0.753 ± 0.066"}, {"sequence": "EASGPGPGAKAT", "protein stability index": "0.6526 ± 0.0026"}, {"sequence": "EATGSLISFCGW", "protein stability index": "0.665 ± 0.068"}, {"sequence": "EAVCHQFVELIG", "protein stability index": "0.605 ± 0.02"}, {"sequence": "ECESGKFSLGGT", "protein stability index": "0.68 ± 0.02"}, {"sequence": "ECGLGGCGGLGV", "protein stability index": "0.705 ± 0.03"}, {"sequence": "ECTTTWLVPQHL", "protein stability index": "0.655 ± 0.015"}, {"sequence": "ECYKKFVCSCCT", "protein stability index": "0.515 ± 0.0086"}, {"sequence": "EDFCMVEQPGVE", "protein stability index": "0.7012 ± 0.0054"}, {"sequence": "EDILWADVPYSK", "protein stability index": "0.759 ± 0.039"}, {"sequence": "EDRSITYNALIL", "protein stability index": "0.678 ± 0.013"}, {"sequence": "EDRTQEIQNIHD", "protein stability index": "0.686 ± 0.012"}, {"sequence": "EDSGRPGRPSTH", "protein stability index": "0.662 ± 0.048"}, {"sequence": "EDYERETRKICK", "protein stability index": "0.717 ± 0.038"}, {"sequence": "EEGGQGITIEES", "protein stability index": "0.686 ± 0.12"}, {"sequence": "EEGGVWIRVEAG", "protein stability index": "0.588 ± 0.019"}, {"sequence": "EEGKSTREKEGG", "protein stability index": "0.685 ± 0.036"}, {"sequence": "EEMEKRNREKEL", "protein stability index": "0.691 ± 0.094"}, {"sequence": "EENGAGVSVGKL", "protein stability index": "0.653 ± 0.0085"}, {"sequence": "EETRRKKRTGKK", "protein stability index": "0.707 ± 0.0099"}, {"sequence": "EEVKRKSGGKSK", "protein stability index": "0.662 ± 0.027"}, {"sequence": "EGCYGVRGNTLH", "protein stability index": "0.612 ± 0.017"}, {"sequence": "EGDGLVWGGQGG", "protein stability index": "0.691 ± 0.0078"}, {"sequence": "EGEGQGWGGQGG", "protein stability index": "0.6994 ± 0.0021"}, {"sequence": "EGEVGGVVLPRI", "protein stability index": "0.696 ± 0.04"}, {"sequence": "EGGERERGNRER", "protein stability index": "0.7176 ± 0.0069"}, {"sequence": "EGGLKIRRSRDE", "protein stability index": "0.657 ± 0.024"}, {"sequence": "EGGRGGGRGVVG", "protein stability index": "0.67 ± 0.027"}, {"sequence": "EGIVRYRKRGSR", "protein stability index": "0.665 ± 0.015"}, {"sequence": "EGKKKKKGNRPK", "protein stability index": "0.676 ± 0.081"}, {"sequence": "EGKWCGVKRGVY", "protein stability index": "0.627 ± 0.033"}, {"sequence": "EGPTRIKRGRSG", "protein stability index": "0.685 ± 0.031"}, {"sequence": "EGQARRAGRQGR", "protein stability index": "0.7349 ± 0.0053"}, {"sequence": "EGSGEGEEAGGV", "protein stability index": "0.6497 ± 0.0047"}, {"sequence": "EGSGLVVANAYP", "protein stability index": "0.667 ± 0.022"}, {"sequence": "EGVAGEWRGMEM", "protein stability index": "0.65 ± 0.014"}, {"sequence": "EGWVVYFEEDLE", "protein stability index": "0.735 ± 0.017"}, {"sequence": "EHKVQTTTNQKE", "protein stability index": "0.697 ± 0.011"}, {"sequence": "EHQNHNTARKRH", "protein stability index": "0.69835 ± 0.00027"}, {"sequence": "EIGGYHLGWAKC", "protein stability index": "0.636 ± 0.022"}, {"sequence": "EIIEINNVKRIK", "protein stability index": "0.6835 ± 0.0049"}, {"sequence": "EIKGKLQEGRMD", "protein stability index": "0.75 ± 0.021"}, {"sequence": "EINEKPGINKKI", "protein stability index": "0.6587 ± 0.0028"}, {"sequence": "EIVKAHKVKKRK", "protein stability index": "0.7166 ± 0.0045"}, {"sequence": "EIYARVQERLKI", "protein stability index": "0.617 ± 0.016"}, {"sequence": "EKDRAVGAAKAA", "protein stability index": "0.631 ± 0.12"}, {"sequence": "EKERRATCPGRK", "protein stability index": "0.652 ± 0.051"}]}]}
